From publication PMC5737080 come the findings set out here.

The target of assay [1] is β-S109C/Q299C/R103S-(AF488)2 (E. coli) (UniProt P0A988). As to the kind of experiment: stopped-flow fluorescence kinetics.
For the next assay, the target named is β-S109C-AF488 (E. coli) (UniProt P0A988). As to the kind of experiment: stopped-flow fluorescence kinetics.
Assay [2] deals with β-R103C/I305C-(AF488)2 (E. coli) (UniProt P0A988). The assay can be described thus: stopped-flow fluorescence kinetics.
The target in assay [3] is β-S109C/Q299C/R103S-(AF488)2 (E. coli) (UniProt P0A988). As to the kind of experiment: stopped-flow fluorescence kinetics. This is another data set of the same source.
Assay [4] deals with β-S109C/Q299C-(AF488)2 (E. coli) (UniProt P0A988). The assay can be described thus: other fluorescence titration.
Assay [5] concerns the target β-S109C/Q299C/R103S-(AF488)2 (E. coli) (UniProt P0A988). The assay can be described thus: other fluorescence titration.
The target in assay [6] is β-S109C/Q299C-(AF488)2 (E. coli) (UniProt P0A988). As to the kind of experiment: other fluorescence titration. This is another data set of the same source.
Assay [7] concerns the target β-S109C/Q299C/R103S-(AF488)2 (E. coli) (UniProt P0A988). As to the kind of experiment: other fluorescence titration. The source holds these as a separate data set.

Where two headings read alike, the source gives them in different places.

In assay [1], “E. coli clamp loader, γ complex (γ3δδ’ψχ subunits) (from UniProt P06710-2;P28630;P28631;P28905;P28632)” showed a koff, fast phase (k f) of 0.046 s⁻¹ and a koff, slow phase (k s) of 0.012 s⁻¹. The substance also returned a maximum observed rate constant, slow phase (clamp opening step) with β-S109C-AF488 (E. coli) of 8 s⁻¹. In assay [2], this substance yielded a k close (reverse of step 2 of the bind-open-lock model) of 4 s⁻¹; a k open (step 2 of the bind-open-lock model) of 9 s⁻¹; a koff, fast phase (k f) of 0.058 s⁻¹; a koff, slow phase (k s) of 0.011 s⁻¹. Further, in assay [2], the limiting observed rate constant, rapid phase of opening was 11 s⁻¹ and the limiting observed rate constant, slow phase of opening turned out to be 1.5 s⁻¹. Besides, in assay [3], the koff, fast phase (k f) was found to be 0.039 s⁻¹ and the koff, slow phase (k s) was 0.0098 s⁻¹. The dissociation constant (Kd) in assay [4] stood at 5.3 nM. Further, the Kd in assay [5] stood at 5 nM. In assay [6], this substance showed a dissociation constant Kd of 7 nM. Also, the Kd in assay [7] was 4.2 nM.
